Here are results for 2 molecules from publication PMC5349888, “Thyroid transcription factor FOXE1 interacts with ETS factor ELK1 to co-regulate TERT”.

For one data set, the target named is T1, ELK1-HA (human, UniProt P19419 1-428).
T1 sequence: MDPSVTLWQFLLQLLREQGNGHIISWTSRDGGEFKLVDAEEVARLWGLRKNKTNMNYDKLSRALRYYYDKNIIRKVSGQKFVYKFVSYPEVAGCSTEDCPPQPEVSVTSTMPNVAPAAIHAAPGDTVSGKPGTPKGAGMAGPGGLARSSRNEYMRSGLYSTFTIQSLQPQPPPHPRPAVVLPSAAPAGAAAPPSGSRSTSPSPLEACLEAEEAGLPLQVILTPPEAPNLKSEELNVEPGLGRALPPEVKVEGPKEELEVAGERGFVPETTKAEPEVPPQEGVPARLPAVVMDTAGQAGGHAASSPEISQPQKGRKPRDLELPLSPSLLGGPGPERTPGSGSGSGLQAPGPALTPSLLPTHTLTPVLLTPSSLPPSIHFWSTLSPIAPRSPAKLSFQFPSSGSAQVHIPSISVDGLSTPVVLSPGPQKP
The data set is described as follows: EMSA; ELK1 alone; EMSA: 1 ug protein, 150 mM KCl, 50 ng/uL poly(dI-dC), 10% glycerol, 10 mM Tris pH 7.5, room temperature 30 min; 6% polyacrylamide gel. The settings on record: protein: recombinant; tags: HA (pCMV-HA-N); label: 5' biotin; blunt. (In general: Mobility shift assays separate free from complexed probe on a gel.)

The target in another data set is T2, FOXE1-Flag;ELK1-HA (human;human, UniProt O00358;P19419 1-373;1-428, |).
T2 sequence 1: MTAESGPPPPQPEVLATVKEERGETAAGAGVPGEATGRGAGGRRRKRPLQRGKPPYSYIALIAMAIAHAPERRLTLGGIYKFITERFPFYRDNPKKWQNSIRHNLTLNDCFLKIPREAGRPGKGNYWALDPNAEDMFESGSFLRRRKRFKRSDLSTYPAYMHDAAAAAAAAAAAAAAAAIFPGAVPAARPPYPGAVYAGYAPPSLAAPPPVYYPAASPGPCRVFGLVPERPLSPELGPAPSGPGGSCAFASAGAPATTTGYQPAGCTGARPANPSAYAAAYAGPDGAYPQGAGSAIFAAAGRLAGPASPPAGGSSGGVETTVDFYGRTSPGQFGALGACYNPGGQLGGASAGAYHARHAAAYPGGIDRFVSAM
T2 sequence 2: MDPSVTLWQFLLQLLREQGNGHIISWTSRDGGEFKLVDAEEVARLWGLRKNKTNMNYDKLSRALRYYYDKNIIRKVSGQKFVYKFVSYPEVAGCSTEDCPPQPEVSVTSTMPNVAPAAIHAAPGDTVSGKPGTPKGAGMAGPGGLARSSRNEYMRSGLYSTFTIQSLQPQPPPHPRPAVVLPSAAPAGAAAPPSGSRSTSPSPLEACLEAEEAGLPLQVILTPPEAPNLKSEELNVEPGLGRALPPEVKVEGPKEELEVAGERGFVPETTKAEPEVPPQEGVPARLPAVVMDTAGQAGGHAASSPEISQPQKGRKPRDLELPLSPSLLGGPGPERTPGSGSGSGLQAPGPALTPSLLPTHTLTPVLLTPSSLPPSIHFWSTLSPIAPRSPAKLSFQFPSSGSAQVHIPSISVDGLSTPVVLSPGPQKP
Kind of data set: EMSA; FOXE1 shifts only with ELK1 present; EMSA: 1 ug protein, 150 mM KCl, 50 ng/uL poly(dI-dC), 10% glycerol, 10 mM Tris pH 7.5, room temperature 30 min; 6% polyacrylamide gel. The settings on record: protein: recombinant;recombinant; tags: 3xFlag (p3XFlag-CMV-7.1);HA (pCMV-HA-N); copies: 1;1; label: 5' biotin; blunt.

For the next data set, the target named is T3, FOXE1-Flag (human, UniProt O00358 1-373).
T3 sequence: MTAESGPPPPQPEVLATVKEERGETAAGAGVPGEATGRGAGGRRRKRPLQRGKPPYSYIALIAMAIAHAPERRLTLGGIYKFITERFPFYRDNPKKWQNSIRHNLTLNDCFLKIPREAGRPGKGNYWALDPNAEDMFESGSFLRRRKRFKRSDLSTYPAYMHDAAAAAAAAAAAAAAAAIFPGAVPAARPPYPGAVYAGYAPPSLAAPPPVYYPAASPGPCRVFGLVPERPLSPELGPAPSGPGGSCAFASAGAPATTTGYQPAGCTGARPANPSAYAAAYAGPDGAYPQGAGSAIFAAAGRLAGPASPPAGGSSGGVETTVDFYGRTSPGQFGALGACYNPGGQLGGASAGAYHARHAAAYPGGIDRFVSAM
The data set is described as follows: EMSA; positive control; EMSA: 1 ug protein, 150 mM KCl, 50 ng/uL poly(dI-dC), 10% glycerol, 10 mM Tris pH 7.5, room temperature 30 min; 6% polyacrylamide gel. Particulars: protein: recombinant; tags: 3xFlag (p3XFlag-CMV-7.1); label: 5' biotin; blunt.

B1: TERT promoter probe (dsDNA)
DNA 1: CCCCGCCCCGTCCCGACCCCTCCCGGGTCCCCGGCCCAGCCCCCTCCGGGCCCTCCCAGCCCCTCCCCTTCCTTTCCGCGGCCCC
DNA 2: GGGGCCGCGGAAAGGAAGGGGAGGGGCTGGGAGGGCCCGGAGGGGGCTGGGCCGGGGACCCGGGAGGGGTCGGGACGGGGCGGGG
Regarding B1, the binding result with ELK1-HA and in the data set with FOXE1-Flag;ELK1-HA was “binds” in each case.

B2: TG promoter K region probe (dsDNA)
DNA 1: GAGGGAGTTCCTGTGACTAGCAGAGAAAACAAAGTGAGCCAC
DNA 2: GTGGCTCACTTTGTTTTCTCTGCTAGTCACAGGAACTCCCTC
Regarding B2, the binding result with FOXE1-Flag is “binds”.
